Measured values reported in US20210079102A1 (DRAGONFLY THERAPEUTICS, published 2021).

T1: human NKG2D expressed on EL4 cells (human, UniProt P26718 1-216)
T1 construct: whole, on cells; also called extracellular NKG2D expressed on EL4 cells; cell-expressed human NKG2D
T1 sequence (looked up): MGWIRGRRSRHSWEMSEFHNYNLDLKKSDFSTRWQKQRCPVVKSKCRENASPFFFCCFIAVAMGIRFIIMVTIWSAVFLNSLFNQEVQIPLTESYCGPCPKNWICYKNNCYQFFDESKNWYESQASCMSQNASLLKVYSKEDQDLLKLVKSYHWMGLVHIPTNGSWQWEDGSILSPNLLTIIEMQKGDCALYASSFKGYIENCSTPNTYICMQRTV

T2: murine NKG2D overexpressed on EL4 cells (EL4-mNKG2D) (mouse, UniProt O54709 1-232)
T2 construct: whole, on cells; also called EL4-mNKG2D cells
T2 sequence (looked up): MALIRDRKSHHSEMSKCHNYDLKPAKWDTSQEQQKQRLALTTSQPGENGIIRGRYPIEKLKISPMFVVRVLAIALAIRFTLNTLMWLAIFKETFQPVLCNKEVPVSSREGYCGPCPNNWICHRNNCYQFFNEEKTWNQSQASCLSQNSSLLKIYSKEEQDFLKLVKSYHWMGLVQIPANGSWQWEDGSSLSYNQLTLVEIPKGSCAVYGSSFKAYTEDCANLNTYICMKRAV

B1: CD33-TriNKET-C26 (ADI-28226 and a CD33-binding domain) (bispecific antibody, V domains shown)
VH 1: QVQLQQWGAGLLKPSETLSLTCAVYGGSFSGYYWSWIRQPPGKGLEWIGEIDHSGSTNYNPSLKSRVTISVDTSKNQFSLKLSSVTAADTAVYYCARARGPWSFDPWGQGTLVTVSS
VL 1: DIQMTQSPSTLSASVGDRVTITCRASQSISSWLAWYQQKPGKAPKLLIYKASSLESGVPSRFSGSGSGTEFTLTISSLQPDDFATYYCQQYGSFPITFGGGTKVEIK
VH 2: QVQLVQSGAEVKKPGASVKVSCKASGYTFTDYVVHWVRQAPGQGLEWMGYINPYNDGTKYNEKFKGRVTMTRDTSISTAYMELSRLRSDDTAVYYCARDYRYEVYGMDYWGQGTLVTVSS
VL 2: DIVLTQSPASLAVSPGQRATITCTASSSVNYIHWYQQKPGQPPKLLIYDTSKVASGVPARFSGSGSGTDFTLTINPVEANDTANYYCQQWRSYPLTFGQGTKLEIK
notes: also called C26-TriNKET-CD33
B2: parental anti-CD33 monoclonal antibody (antibody, V domains shown)
VH: B1 VH 2
VL: B1 VL 2
notes: also called parental monoclonal anti-CD33 antibody; parental anti-CD33 antibody
B3: mcFAE-C26.99 TriNKET (bispecific antibody, mouse IgG2c)
light 1: DIQMTQSPSTLSASVGDRVTITCRASQSISSWLAWYQQKPGKAPKLLIYKASSLESGVPSRFSGSGSGTEFTLTISSLQPDDFATYYCQQYGSFPITFGGGTKVEIKRADAAPTVSIFPPSSEQLTSGGASVVCFLNNFYPKDINVKWKIDGSERQNGVLNSWTDQDSKDSTYSMSSTLTLTKDEYERHNSYTCEATHKTSTSPIVKSFNRNEC
heavy 1: QVQLQQWGAGLLKPSETLSLTCAVYGGSFSGYYWSWIRQPPGKGLEWIGEIDHSGSTNYNPSLKSRVTISVDTSKNQFSLKLSSVTAADTAVYYCARARGPWSFDPWGQGTLVTVSSAKTTAPSVYPLAPVCGGTTGSSVTLGCLVKGYFPEPVTLTWNSGSLSSGVHTFPALLQSGLYTLSSSVTVTSNTWPSQTITCNVAHPASSTKVDKKIEPRVPITQNPCPPLKECPPCAAPDLLGGPSVFIFPPKIKDVLMISLSPMVTCVVVDVSEDDPDVQISWFVNNVEVHTAQTQTHREDYNSTLRVVSALPIQHQDWMSGKEFKCKVNNRALPSPIEKTISKPRGPVRAPQVYVLPPPAEEMTKKEFSLTCMIKGFLPAEIAVDWTSNGRTEQNYKNTATVLDSDGSYFMYSRLRVQKSTWERGSLFACSVVHEGLHNHLTTKTISRSLGK
light 2: DIQMSQSPASLSASVGETVTITCRASGNIYNYLAWYQQKQGKSPHLLVYDAKTLADGVPSRFSGSGSGTQYSLKISSLQTEDSGNYYCQHFWSLPFTFGSGTKLEIKRADAAPTVSIFPPSSEQLTSGGASVVCFLNNFYPKDINVKWKIDGSERQNGVLNSWTDQDSKDSTYSMSSTLTLTKDEYERHNSYTCEATHKTSTSPIVKSFNRNEC
heavy 2: EVQLQQSGAELVRPGALVKLSCKTSGFNIKDYFLHWVRQRPDQGLEWIGWINPDNGNTVYDPKFQGTASLTADTSSNTVYLQLSGLTSEDTAVYFCTRRDYTYEKAALDYWGQGASVIVSSAKTTAPSVYPLAPVCGGTTGSSVTLGCLVKGYFPEPVTLTWNSGSLSSGVHTFPALLQSGLYTLSSSVTVTSNTWPSQTITCNVAHPASSTKVDKKIEPRVPITQNPCPPLKECPPCAAPDLLGGPSVFIFPPKIKDVLMISLSPMVTCVVVDVSEDDPDVQISWFVNNVEVHTAQTQTHREDYNSTLRVVSALPIQHQDWMSGKEFKCKVNNRALPSPIEKTISKPRGPVRAPQVYVLPPPAEEMTKKEFSLTCMITGFLPAEIAVDWTSNGRTEQNYKNTATVLDSDGSYLMYSKLTVQKSTWERGSLFACSVVHEGLHNHLTTKTISRSLGK
notes: also called murine cFAE-C26.99 TriNKET; TA99 TriNKET (mcFAE-C26.99)

Legend:
[1] = biological target: T3, CD33 expressed on MV4-11 human AML cells (human, UniProt P20138 18-364); assay: flow cytometry on MV4-11 cells, FOB of MFI
T3 construct: whole, on cells; also called cell-expressed CD33
T3 sequence (P20138 18-364): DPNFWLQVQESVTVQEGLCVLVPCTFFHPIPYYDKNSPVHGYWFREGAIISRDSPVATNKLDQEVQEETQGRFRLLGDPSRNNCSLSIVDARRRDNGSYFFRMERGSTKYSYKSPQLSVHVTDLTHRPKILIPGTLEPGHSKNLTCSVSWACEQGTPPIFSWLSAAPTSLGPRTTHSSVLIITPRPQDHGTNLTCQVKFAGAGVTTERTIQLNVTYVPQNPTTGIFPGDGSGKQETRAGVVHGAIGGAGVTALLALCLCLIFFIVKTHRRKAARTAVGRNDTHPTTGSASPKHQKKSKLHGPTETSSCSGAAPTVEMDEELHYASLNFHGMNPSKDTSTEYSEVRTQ
Method: Human AML cell line MV4-11 expressing CD33 was used to assay the binding of TriNKETs to the tumor associated antigen. TriNKETs and the parental anti-CD33 monoclonal antibody were incubated with the cells, and the binding was detected using fluorophore-conjugated anti-human IgG secondary antibodies. Cells were analyzed by flow cytometry, and fold-over-background (FOB) was calculated using the mean fluorescence intensity (MFI) from TriNKETs and the parental monoclonal anti-CD33 antibody normalized to secondary antibody controls.

[2] = biological target: T1, human NKG2D expressed on EL4 cells; assay: flow cytometry on EL4 cells expressing human NKG2D, anti-human IgG secondary, FOB of MFI
Method: EL4 mouse lymphoma cell lines were engineered to express human NKG2D. […] The binding of the multi-specific binding proteins to NKG2D was detected using fluorophore-conjugated anti-human IgG secondary antibodies. Cells were analyzed by flow cytometry, and fold-over-background (FOB) was calculated using the mean fluorescence intensity (MFI) of NKG2D-expressing cells compared to parental EL4 cells.

[3] = biological target: T2, murine NKG2D overexpressed on EL4 cells …; assay: flow cytometry on EL4-mNKG2D cells, 60 ug/mL with four-fold dilutions, goat anti-mouse PE secondary
Method: (§1) 60 μg/mL of indicated antibodies with four-fold dilutions were added to 2×10⁵ B16F10 tumor cells (FIG. 58A) or EL4-mNKG2D cells (FIG. 58B). Binding was assessed using a goat anti-mouse PE secondary antibody followed by flow cytometric analysis.

[4] = biological target: T4, Tyrp-1 on B16F10 melanoma cells (UniProt P07147 25-537, limits assumed); assay: flow cytometry on B16F10 tumor cells, 60 ug/mL with four-fold dilutions, goat anti-mouse PE secondary
T4 construct: whole, on cells; also called Tyrp-1-positive B16F10 melanoma cells
Method: as §1

Binder	binding result [1]	binding result [2]	binding result [3]	binding result [4]
B1	binds	binds		
B2	binds			
B3			binds	binds
